As a reminder, the Kd is the equilibrium constant for the complex coming apart.

Substitutions are numbered along the chain they refer to.

Data set [1] deals with T1, TR4_(341–596), ligand-binding domain of human testicular receptor 4 (human, UniProt P49116 341-596).
T1 sequence (looked up): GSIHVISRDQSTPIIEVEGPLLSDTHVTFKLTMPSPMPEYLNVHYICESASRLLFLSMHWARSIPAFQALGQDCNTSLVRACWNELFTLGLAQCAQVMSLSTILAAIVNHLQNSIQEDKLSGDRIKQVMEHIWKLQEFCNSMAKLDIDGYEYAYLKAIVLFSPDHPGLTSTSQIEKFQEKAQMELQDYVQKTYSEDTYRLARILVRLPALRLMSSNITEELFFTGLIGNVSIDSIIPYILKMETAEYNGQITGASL
The experiment in a line: crystal structure.

The target in the next data set is T2, TR4DBD-CTE N167K (Homo sapiens, UniProt P49116 113-200, N167K).
T2 sequence: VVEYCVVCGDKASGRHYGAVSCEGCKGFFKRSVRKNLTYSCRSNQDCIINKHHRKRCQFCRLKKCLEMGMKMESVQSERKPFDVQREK
The experiment in a line: MST.

The next data set has as its target T3, TR4DBD-CTE R127C (Homo sapiens, UniProt P49116 113-200, R127C).
T3 sequence: T2 sequence with R15C, K55N
The experiment in a line: MST.

The target in the next data set is T4, TR4DBD-CTE R191A (Homo sapiens, UniProt P49116 113-200, R191A).
T4 sequence: T2 sequence with K55N, R79A
The experiment in a line: MST.

The next data set addresses T5, TR4DBD-CTE S189A (Homo sapiens, UniProt P49116 113-200, S189A).
T5 sequence: T2 sequence with K55N, S77A
The experiment in a line: MST.

For a further data set, the target named is T6, TR4DBD-CTE R168A (Homo sapiens, UniProt P49116 113-200, R168A).
T6 sequence: T2 sequence with K55N, R56A
The experiment in a line: MST.

Another data set has as its target T7, TR4DBD (Homo sapiens, UniProt P49116 113-189).
T7 sequence: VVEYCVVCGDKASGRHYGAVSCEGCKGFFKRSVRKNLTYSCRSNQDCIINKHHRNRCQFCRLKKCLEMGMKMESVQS
The experiment in a line: MST.

B1: JAZF1_(51–75) (domain or fragment, human, UniProt Q86VZ6 51-75, looked up)
chain: QQPTYVALSYINRFMTDAARREQES
On to B1, for which the binding result in data set [1] is reported as “binds”.

B2: idRE, 23 bp DR1 (dsDNA)
DNA 1: GGCAGAGGTCAAAGGTCAAACGT
DNA 2: ACGTTTGACCTTTGACCTCTGCC
Regarding B2, the binding signal with TR4DBD-CTE N167K was over 60 fold increase vs WT; in the data set with TR4DBD-CTE R127C, about 280 fold increase vs WT; in the data set with TR4DBD-CTE R191A, about 60 fold decrease vs WT; in the data set with TR4DBD-CTE S189A, 12 fold decrease vs WT; with TR4DBD-CTE R168A, 12 fold decrease vs WT.

B3: 18 bp DR1 (dsDNA)
DNA 1: GGCAGAGGTCAAAGGTCA
DNA 2: CTGACCTTTGACCTCTGC
In the case of B3, the Kd with TR4DBD came to 38.3 µM.

For the origin of these results see paper PMC9943680 (Nucleic Acids Research, 2023).
